From article PMC11417369, “DNA sequence and chromatin differentiate sequence-specific transcription factor binding in the human malaria parasite Plasmodium falciparum”
Residue numbers refer to the chain shown, from its start.

Biological target: T1, AP2-HC D1 (Plasmodium falciparum, UniProt Q8IKR9 1316-1374)
T1 sequence: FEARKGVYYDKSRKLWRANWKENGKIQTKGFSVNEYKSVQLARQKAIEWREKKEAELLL
Test: gcPBM; about 25 ug protein; PBS, 1% milk, 0.2 mg/ml BSA, salmon testes DNA, 0.03% Triton X-100
Settings: tags: N-terminal GST (pGEX-4T-1), kept; label: surface-attached array probe

B1: CACACA_site2016 (dsDNA)
DNA 1: CCAACATATATTATCACACACATATATATATATATA
DNA 2: TATATATATATATATGTGTGTGATAATATATGTTGG
binding signal: 9.91 ln median PBM intensity, better of two orientations

B2: CACACA_site7038 (dsDNA)
DNA 1: B1 DNA 1 with C1A, A10G, T27A, T33A
DNA 2: B1 DNA 2 with A4T, A10T, T27C, G36T
binding signal: 9.96 ln median PBM intensity, better of two orientations

B3: CACACA_site5129 (dsDNA)
DNA 1: TATAAATACATACGTACACACAAATATTAAAATATA
DNA 2: TATATTTTAATATTTGTGTGTACGTATGTATTTATA
binding signal: 9.91 ln median PBM intensity, better of two orientations

B4: CACACA_site9021 (dsDNA)
DNA 1: ATTTCGTAATTTATATCACACACATATATATATAAT
DNA 2: ATTATATATATATGTGTGTGATATAAATTACGAAAT
binding signal: 9.99 ln median PBM intensity, better of two orientations

B5: CACACA_site884 (dsDNA)
DNA 1: ATGTGGAAATAGAGCACACATATATATAATATATAT
DNA 2: ATATATATTATATATATGTGTGCTCTATTTCCACAT
binding signal: 9.92 ln median PBM intensity, better of two orientations

B6: CACACA_negctrl_site143 (dsDNA)
DNA 1: ATAAACAGAAAAAAAAAAAAAAAAAAAAAAAAAAAA
DNA 2: TTTTTTTTTTTTTTTTTTTTTTTTTTTTCTGTTTAT
binding signal: 8.89 ln median PBM intensity, better of two orientations

B7: CACACA_site1882 (dsDNA)
DNA 1: ATATAGATCTACACTGCACACATTTTTAACACTGCT
DNA 2: AGCAGTGTTAAAAATGTGTGCAGTGTAGATCTATAT
binding signal: 10 ln median PBM intensity, better of two orientations

B8: CACACA_site2909 (dsDNA)
DNA 1: TTCTTTTTCCAATTTGCACACCACAAAATTATATAT
DNA 2: ATATATAATTTTGTGGTGTGCAAATTGGAAAAAGAA
binding signal: 10 ln median PBM intensity, better of two orientations

B9: CACACA_site7599 (dsDNA)
DNA 1: AGCATTTTAAGTTATACACACATTTTGAATCTATAT
DNA 2: ATATAGATTCAAAATGTGTGTATAACTTAAAATGCT
binding signal: 9.87 ln median PBM intensity, better of two orientations

B10: CACACA_site6369 (dsDNA)
DNA 1: ATAAATAAGATATATACACACATATCTATACATATT
DNA 2: AATATGTATAGATATGTGTGTATATATCTTATTTAT
binding signal: 9.9 ln median PBM intensity, better of two orientations

B11: CACACA_site2473 (dsDNA)
DNA 1: GTTATTGTAAAAAGATTACACACGTTCTATATACTT
DNA 2: AAGTATATAGAACGTGTGTAATCTTTTTACAATAAC
binding signal: 9.97 ln median PBM intensity, better of two orientations

B12: CACACA_site1591 (dsDNA)
DNA 1: TTAGCAACTATTACTACACACATTTGTATATAATTT
DNA 2: AAATTATATACAAATGTGTGTAGTAATAGTTGCTAA
binding signal: 9.95 ln median PBM intensity, better of two orientations

B13: CACACA_site2516 (dsDNA)
DNA 1: AAAAAAAATGATAATATACACACTTATGGGAGAGCG
DNA 2: CGCTCTCCCATAAGTGTGTATATTATCATTTTTTTT
binding signal: 9.94 ln median PBM intensity, better of two orientations

B14: CACACA_site1955 (dsDNA)
DNA 1: AATGAATGTAAGAAAATACACACTAGTATAGTAACA
DNA 2: TGTTACTATACTAGTGTGTATTTTCTTACATTCATT
binding signal: 9.93 ln median PBM intensity, better of two orientations

B15: CACACA_site7113 (dsDNA)
DNA 1: TACGTTCTGATATATACACACCTGGTATTAATTATG
DNA 2: CATAATTAATACCAGGTGTGTATATATCAGAACGTA
binding signal: 10 ln median PBM intensity, better of two orientations

B16: CACACA_site8492 (dsDNA)
DNA 1: AAAAAAAAAAAAAAAACACACACAAATTTAATATAT
DNA 2: ATATATTAAATTTGTGTGTGTTTTTTTTTTTTTTTT
binding signal: 10.1 ln median PBM intensity, better of two orientations

B17: CACACA_site8569 (dsDNA)
DNA 1: CTTTAATATTTTATTTCACACACATAAATGCCCCAA
DNA 2: TTGGGGCATTTATGTGTGTGAAATAAAATATTAAAG
binding signal: 9.84 ln median PBM intensity, better of two orientations

B18: CACACA_site6743 (dsDNA)
DNA 1: AAGAAGCATAAATGTACACACATATTTATATATCAA
DNA 2: TTGATATATAAATATGTGTGTACATTTATGCTTCTT
binding signal: 10.1 ln median PBM intensity, better of two orientations

B19: CACACA_site8007 (dsDNA)
DNA 1: TTTATTTTATCATTTGCACACGCACCCCCACATAAA
DNA 2: TTTATGTGGGGGTGCGTGTGCAAATGATAAAATAAA
binding signal: 10 ln median PBM intensity, better of two orientations

B20: CACACA_site9316 (dsDNA)
DNA 1: CTTTTTAATAAATATACACACACAAAAAAAAAAAAA
DNA 2: TTTTTTTTTTTTTGTGTGTGTATATTTATTAAAAAG
binding signal: 10.1 ln median PBM intensity, better of two orientations

B21: CACACA_negctrl_site1727 (dsDNA)
DNA 1: TAACCACAAAAATAAAATCAAAAAAAAAAAAAAAAA
DNA 2: TTTTTTTTTTTTTTTTTGATTTTATTTTTGTGGTTA
binding signal: 8.75 ln median PBM intensity, better of two orientations

B22: CACACA_site8 (dsDNA)
DNA 1: TTTATAATTTATATCACACACATATATATATAGTAA
DNA 2: TTACTATATATATATGTGTGTGATATAAATTATAAA
binding signal: 9.83 ln median PBM intensity, better of two orientations

B23: CACACA_site1421 (dsDNA)
DNA 1: AAAAGTAACAAAGCTACACACATTTAAATAAACATA
DNA 2: TATGTTTATTTAAATGTGTGTAGCTTTGTTACTTTT
binding signal: 9.84 ln median PBM intensity, better of two orientations

B24: CACACA_site315 (dsDNA)
DNA 1: ACCAATAATATACATACACACATAAAGGTTTATATA
DNA 2: TATATAAACCTTTATGTGTGTATGTATATTATTGGT
binding signal: 9.89 ln median PBM intensity, better of two orientations

B25: CACACA_site8055 (dsDNA)
DNA 1: ATCTAAATAAAGTTAACACACACATAATATATATAT
DNA 2: ATATATATATTATGTGTGTGTTAACTTTATTTAGAT
binding signal: 10.1 ln median PBM intensity, better of two orientations

B26: CACACA_site8037 (dsDNA)
DNA 1: TAAAAGAAATAAGGTGCACACATATACATATATATA
DNA 2: TATATATATGTATATGTGTGCACCTTATTTCTTTTA
binding signal: 9.97 ln median PBM intensity, better of two orientations

B27: CACACA_site3027 (dsDNA)
DNA 1: AAGTTTATTTGTTGCACACATATAAGTAGAGAAAAT
DNA 2: ATTTTCTCTACTTATATGTGTGCAACAAATAAACTT
binding signal: 9.88 ln median PBM intensity, better of two orientations

B28: CACACA_site3596 (dsDNA)
DNA 1: AAATTCAAACAAATTACACACATTTTTTTTTAATTT
DNA 2: AAATTAAAAAAAAATGTGTGTAATTTGTTTGAATTT
binding signal: 9.94 ln median PBM intensity, better of two orientations

B29: CACACA_negctrl_site585 (dsDNA)
DNA 1: TTTTTTTCTTGTTTTAAATAATATACTGGAAAAAAA
DNA 2: TTTTTTTCCAGTATATTATTTAAAACAAGAAAAAAA
binding signal: 8.87 ln median PBM intensity, better of two orientations

B30: CACACA_site762 (dsDNA)
DNA 1: ATTTTTTTATTTTGTGCACACACATAAAAATATATA
DNA 2: TATATATTTTTATGTGTGTGCACAAAATAAAAAAAT
binding signal: 9.86 ln median PBM intensity, better of two orientations

B31: CACACA_site1808 (dsDNA)
DNA 1: ATAAATATTAAAAGTACACACAGATACACTAATTAT
DNA 2: ATAATTAGTGTATCTGTGTGTACTTTTAATATTTAT
binding signal: 10 ln median PBM intensity, better of two orientations

B32: CACACA_site2466 (dsDNA)
DNA 1: TACCTAATATGTTATACACACATTATGAGTACATAT
DNA 2: ATATGTACTCATAATGTGTGTATAACATATTAGGTA
binding signal: 9.88 ln median PBM intensity, better of two orientations

B33: CACACA_site7206 (dsDNA)
DNA 1: B32 DNA 1 with G27A
DNA 2: B32 DNA 2 with C10T
binding signal: 9.98 ln median PBM intensity, better of two orientations

B34: CACACA_negctrl_site1524 (dsDNA)
DNA 1: TTTTTTTTTTTTTTTTTTTTACCCCTTTTTCAAAAA
DNA 2: TTTTTGAAAAAGGGGTAAAAAAAAAAAAAAAAAAAA
binding signal: 8.65 ln median PBM intensity, better of two orientations

B35: CACACA_site6815 (dsDNA)
DNA 1: TAAGAGTAGTTATATACACACATGTATATTATAGTT
DNA 2: AACTATAATATACATGTGTGTATATAACTACTCTTA
binding signal: 9.9 ln median PBM intensity, better of two orientations

B36: CACACA_site3408 (dsDNA)
DNA 1: GATCTATACATGGGGACACACATCACTCTATATTTT
DNA 2: AAAATATAGAGTGATGTGTGTCCCCATGTATAGATC
binding signal: 10.1 ln median PBM intensity, better of two orientations

B37: CACACA_site8531 (dsDNA)
DNA 1: ATTTATAATTTTTGAGCACACACAAGCATATATATA
DNA 2: TATATATATGCTTGTGTGTGCTCAAAAATTATAAAT
binding signal: 9.85 ln median PBM intensity, better of two orientations

B38: CACACA_negctrl_site1343 (dsDNA)
DNA 1: TTTTAAAAAAAAAAAAAAAAAAAAAAAAAAAAAAAA
DNA 2: TTTTTTTTTTTTTTTTTTTTTTTTTTTTTTTTAAAA
binding signal: 8.78 ln median PBM intensity, better of two orientations

B39: CACACA_site382 (dsDNA)
DNA 1: GATATATATATTCACACACACATGGAAATATATATA
DNA 2: TATATATATTTCCATGTGTGTGTGAATATATATATC
binding signal: 10.1 ln median PBM intensity, better of two orientations

B40: CACACA_negctrl_site807 (dsDNA)
DNA 1: TTTTTTTTTTTTTTTTTTAAACACCTCAAAAAAAAA
DNA 2: TTTTTTTTTGAGGTGTTTAAAAAAAAAAAAAAAAAA
binding signal: 8.83 ln median PBM intensity, better of two orientations

B41: CACACA_negctrl_site273 (dsDNA)
DNA 1: TTTTTTTTTTTTTTTTTTTTTTGTGAAACTAAGTAA
DNA 2: TTACTTAGTTTCACAAAAAAAAAAAAAAAAAAAAAA
binding signal: 8.92 ln median PBM intensity, better of two orientations

B42: CACACA_site806 (dsDNA)
DNA 1: ATTTAAATAAGATATACACACAAGTAGAAGACTATG
DNA 2: CATAGTCTTCTACTTGTGTGTATATCTTATTTAAAT
binding signal: 9.85 ln median PBM intensity, better of two orientations

B43: CACACA_negctrl_site1670 (dsDNA)
DNA 1: TTTATTTAAAAAATAAAAAAAAAAAAAAAAAAAAAA
DNA 2: TTTTTTTTTTTTTTTTTTTTTTATTTTTTAAATAAA
binding signal: 8.32 ln median PBM intensity, better of two orientations

B44: CACACA_site1704 (dsDNA)
DNA 1: ACCTCATAATATTTAACACACAAAATTATATGTATG
DNA 2: CATACATATAATTTTGTGTGTTAAATATTATGAGGT
binding signal: 9.87 ln median PBM intensity, better of two orientations
